This note sets out measurements from patent US20220089642A1.

pKd: −log10 of the molar value.

The assay concerns the target SARS-CoV1.

By pKd is commonly meant −log10 of the Kd, conventionally taken in molar units. High values mean a small Kd, low ones a large Kd. Broadly, the koff is the rate constant with which the complex falls apart. Read a low koff as slow dissociation. One may read the kon as the second-order rate constant of association. A lower kon goes with slower complex formation. “Fc-ACE2 full length construct (Fc fusion)” had a pKd of 8.74, a koff of 0.000435 s⁻¹ and a kon of 237000 M⁻¹ s⁻¹.
